Data: US7687489B2, “Agent for treatment of cerebral ischemic diseases” (Ono Pharmaceutical Co., Ltd., priority 2001, dated 2010)

System: thrombin-induced focal cerebral ischemic model
Assay: Thrombin-induced focal cerebral ischemic model: survival and neurological symptom score
Assay type: in vivo, male Wistar rats
Protocol: Twenty male Wistar rats (8-weeks age) were used as one group. The rats were anesthetized with halothane, followed by incision and then subjected to carotid artery shunting. A polyethylene catheter containing thrombin (10 international units) was catheterized into the carotid artery, and […] of blood was sucked and reserved in the catheter for 10 minutes. Then, thrombus formed in the catheter was infused into the carotid artery together with thrombin (J. Cereb. Blood Flow Metab., 17, 123 (1997)).
The neurological symptoms of said rats were scored according to the method as described in Brain Res., 452, 323 (1988). The evaluation of score was carried out at 6 hours, 24 hours, 48 hours and 72 hours after infusion of thrombin, and the scores were accumulated. The survival period was determined by monitoring surviving or dead rats at intervals of one hour for the first 72 hours after the infusion of thrombin.
From forty minutes after thrombin infusion, t-PA (Activacin 100,000 international units, product of Kyowa Hakko Kogyo Co., Ltd.) was continuously administered in an amount of 33 μL/min to the anesthetized rats for 15 minutes. (R)-2-propyloctanoic acid (hereinafter referred to as compound A) in an amount of 10 mg/mL/kg was administered through tail vein of the rats three times at 6 hours, 24 hours and 48 hours after the infusion of thrombin.

[1] = accumulated score, rats surviving 72 h, average ± standard error

B1: t-PA: tissue plasminogen activator, thrombolytic agent (Activacin, product of Kyowa Hakko Kogyo Co., Ltd.) (protein, UniProt P00750 36-562, looked up)
Tissue-type plasminogen …: SYQVICRDEKTQMIYQQHQSWLRPVLRSNRVEYCWCNSGRAQCHSVPVKSCSEPRCFNGGTCQQALYFSDFVCQCPEGFAGKCCEIDTRATCYEDQGISYRGTWSTAESGAECTNWNSSALAQKPYSGRRPDAIRLGLGNHNYCRNPDRDSKPWCYVFKAGKYSSEFCSTPACSEGNSDCYFGNGSAYRGTHSLTESGASCLPWNSMILIGKVYTAQNPSAQALGLGKHNYCRNPDGDAKPWCHVLKNRRLTWEYCDVPSCSTCGLRQYSQPQFRIKGGLFADIASHPWQAAIFAKHRRSPGERFLCGGILISSCWILSAAHCFQERFPPHHLTVILGRTYRVVPGEEEQKFEVEKYIVHKEFDDDTYDNDIALLQLKSDSSRCAQESSVVRTVCLPPADLQLPDWTECELSGYGKHEALSPFYSERLKEAHVRLYPSSRCTSQHLLNRTVTDNMLCAGDTRSGGPQANLHDACQGDSGGPLVCLNDGRMTLVGIISWGLGCGQKDVPGVYTKVTNYLDWIRDNMRP
Survival rate after 72 hours (72 hours after thrombin infusion, 20 rats per group, * p<0.05 vs control (Log-rank test)): 35.0% | No. of surviving rats (72 hours after thrombin infusion, 20 rats per group, t-PA infused from 40 min for 15 min, compound A 10 mg/mL/kg i.v. at 6, 24, 48 h): 7 | Neurological symptom score, 0 to 6 hours [1]: 3.4 ± 0.2 | Neurological symptom score, 0 to 24 hours [1]: 3.4 ± 0.2 | Neurological symptom score, 0 to 48 hours [1]: 3.1 ± 0.3 | Neurological symptom score, 0 to 72 hours [1]: 3.0 ± 0.3
